# According to the Human Domainome abundance scans (Beltran et al. 2025):
# ± gives the uncertainty stated by the source.
# B1: Far upstream element-binding protein 1, residues 184 to 257; numbered along this chain, Q96AE4 (parent)
# chain: GNAVQEIMIPASKAGLVIGKGGETIKQLQERAGVKMVMIQDGPQNTGADKPLRITGDPYKVQQAKEMVLELIRD
# B2: Peripheral plasma membrane protein CASK, residues 488 to 569; numbered along this chain, O14936 (parent)
# chain: VRLVQFQKNTDEPMGITLKMNELNHCIVARIMHGGMIHRQGTLHVGDEIREINGISVANQTVEQLQKMLREMRGSITFKIVP
# Variants of: B1
# Assay: abundance fitness (aPCA) (normalised: wild type 0, dead -1); higher = more abundant; growth selection in yeast, the domain comes from the species named
# Conditions: Homo sapiens
row,Variant,abundance fitness
1,M38S,-0.205 ± 0.034
2,M38L,0.035 ± 0.031
3,V37P,-0.773 ± 0.05
4,V37R,-0.019 ± 0.026
5,V37K,0.039 ± 0.039
6,V37E,-0.006 ± 0.034
7,Q27Y,-0.129 ± 0.049
8,Q27C,-0.08 ± 0.042
9,Q27K,0.032 ± 0.04
10,Q27D,-0.005 ± 0.044
11,Q27V,-0.095 ± 0.032
12,T46L,-0.038 ± 0.03
13,T46M,-0.028 ± 0.038
14,T24Q,-0.012 ± 0.035
15,T24I,-0.11 ± 0.045
16,T24Y,-0.116 ± 0.054
17,T24F,-0.101 ± 0.063
18,N45G,-0.008 ± 0.026
19,N45H,-0.022 ± 0.052
20,N45R,-0.022 ± 0.029
21,V34F,-1.35 ± 0.15
22,V34N,-0.68 ± 0.087
23,V34T,-0.232 ± 0.04
24,V34D,-0.807 ± 0.067
25,V34I,-0.432 ± 0.061
26,V34W,-1.35 ± 0.086

row,Variant,abundance fitness
1,V34M,-0.808 ± 0.059
2,Q62R,-0.059 ± 0.026
3,Q62M,-0.075 ± 0.041
4,Q62E,0.02 ± 0.034
5,A32T,0.02 ± 0.035
6,A32F,0.054 ± 0.046
7,A32H,0.031 ± 0.052
8,A32R,-0.367 ± 0.031
9,A48R,-0.018 ± 0.027
10,A48F,-0.01 ± 0.051
11,D57N,-0.083 ± 0.043
12,D57T,-0.028 ± 0.035
13,D57W,-0.387 ± 0.037
14,D57L,-0.119 ± 0.031
15,D57P,-0.018 ± 0.039
16,D57Q,-0.018 ± 0.036
17,D57C,-0.093 ± 0.045
18,Q5Y,-0.003 ± 0.051
19,Q5C,-0.006 ± 0.045
20,Q5N,-0.083 ± 0.051
21,Q5A,-0.007 ± 0.03
22,Q5M,0.056 ± 0.035
23,Q5D,0.021 ± 0.041
24,Q5V,0.04 ± 0.029
25,Q5K,0.016 ± 0.036
26,G21F,-0.05 ± 0.052

row,Variant,abundance fitness
1,G21P,-0.493 ± 0.035
2,G21V,-0.219 ± 0.031
3,G21N,0.05 ± 0.05
4,G21K,0.015 ± 0.037
5,M8T,-0.106 ± 0.038
6,M8G,-0.151 ± 0.027
7,M8L,-0.075 ± 0.03
8,M8R,-0.074 ± 0.026
9,M8C,-0.339 ± 0.047
10,L28P,-0.77 ± 0.051
11,L28G,-0.825 ± 0.035
12,L28I,-0.026 ± 0.058
13,L28W,-0.284 ± 0.035
14,L28Q,-0.612 ± 0.055
15,L28M,0.026 ± 0.038
16,L28D,-0.692 ± 0.061
17,A11D,-0.014 ± 0.045
18,A11N,0.021 ± 0.046
19,A11Y,-0.089 ± 0.053
20,A11I,-0.096 ± 0.056
21,E23Q,-0.021 ± 0.039
22,E23W,-0.087 ± 0.032
23,R31M,-0.096 ± 0.039
24,R31H,0.032 ± 0.054
25,Q29P,-0.748 ± 0.044
26,Q29L,-0.45 ± 0.033

row,Variant,abundance fitness
1,Q29M,-0.044 ± 0.042
2,Q29K,-0.189 ± 0.04
3,K35V,-0.124 ± 0.03
4,K35L,-0.118 ± 0.03
5,K35I,-0.158 ± 0.055
6,K35W,-0.308 ± 0.036
7,K35N,0.023 ± 0.052
8,S12N,0 ± 0.045
9,S12L,-0.112 ± 0.031
10,S12R,-0.025 ± 0.026
11,S12E,-0.016 ± 0.034
12,S12P,-0.008 ± 0.038
13,S12T,0.001 ± 0.036
14,E6C,-0.366 ± 0.044
15,E6H,-0.086 ± 0.045
16,E6Y,-0.232 ± 0.048
17,E6L,-0.187 ± 0.03
18,E6W,-0.082 ± 0.033
19,E6M,-0.078 ± 0.042
20,E6S,-0.185 ± 0.031
21,K60R,-0.052 ± 0.026
22,K60M,-0.118 ± 0.038
23,K60F,-0.277 ± 0.047
24,K60L,-0.065 ± 0.028
25,K60W,-0.314 ± 0.032
26,I72M,-0.009 ± 0.039

row,Variant,abundance fitness
1,I72D,-0.408 ± 0.049
2,I72P,-0.394 ± 0.036
3,I72Y,-0.276 ± 0.044
4,I72K,-0.405 ± 0.043
5,I72L,0.01 ± 0.03
6,L69T,-0.021 ± 0.035
7,L69F,-0.077 ± 0.051
8,L69Y,0.008 ± 0.045
9,Q63E,0.006 ± 0.035
10,Q63V,-0.038 ± 0.031
11,Q63F,-0.116 ± 0.047
12,Q63A,-0.022 ± 0.03
13,Q63G,-0.058 ± 0.027
14,P58Y,-0.022 ± 0.056
15,P58T,-0.002 ± 0.037
16,P58N,-0.139 ± 0.057
17,P58G,-0.034 ± 0.028
18,E30V,-0.029 ± 0.031
19,E30Y,-0.114 ± 0.06
20,E30L,-0.026 ± 0.031
21,E30S,-0.007 ± 0.032
22,E70P,-0.308 ± 0.04
23,E70D,0.046 ± 0.046
24,E70M,-0.152 ± 0.04
25,D74W,-0.327 ± 0.076
26,D74A,-0.089 ± 0.039

row,Variant,abundance fitness
1,D74K,-0.175 ± 0.07
2,K50M,-0.035 ± 0.04
3,K50R,-0.005 ± 0.026
4,K50Y,0.018 ± 0.054
5,K50T,-0.019 ± 0.034
6,K50D,-0.525 ± 0.052
7,K50S,-0.068 ± 0.032
8,E66Q,-0.07 ± 0.036
9,E66W,-0.167 ± 0.032
10,E66H,-0.165 ± 0.051
11,A3W,0.116 ± 0.033
12,A3E,0.039 ± 0.036
13,A3S,0.196 ± 0.032
14,P43C,-0.049 ± 0.051
15,P43M,-0.016 ± 0.044
16,P43W,-0.022 ± 0.042
17,G42H,-0.082 ± 0.048
18,G42R,-0.022 ± 0.026
19,G42N,-0.059 ± 0.054
20,V61R,-0.672 ± 0.032
21,V61A,-0.22 ± 0.031
22,V61Q,-0.528 ± 0.046
23,V61H,-0.814 ± 0.07
24,V61P,-0.758 ± 0.044

# Variants of: B2
# Assay: as above
# Conditions: Homo sapiens
row,Variant,abundance fitness
1,F78C,-0.233 ± 0.052
2,I80H,-0.623 ± 0.073
3,E48L,-0.161 ± 0.037
4,G74S,-0.381 ± 0.033
5,V45Q,-0.134 ± 0.061
6,L18M,-0.128 ± 0.05
7,I31L,-0.058 ± 0.032
8,M36T,0.006 ± 0.05
9,N24G,0.023 ± 0.019
10,N24E,-0.065 ± 0.026
11,L69A,-0.355 ± 0.026
12,M72E,-0.085 ± 0.028
13,K67A,-0.022 ± 0.028
